Measurements: patent publication US20230227561A1 (REGENTS OF THE UNIVERSITY OF MINNESOTA, published 2023)

Key:
[1] = molecular target: T1, canine CD16A on dog peripheral blood leukocytes / PBMC (canine, UniProt E2RP87 1-249); experiment: flow cytometry, FITC protein at 80 nM, PBMC of dog Never
T1 construct: Native protein on primary dog cells of various breeds
T1 sequence: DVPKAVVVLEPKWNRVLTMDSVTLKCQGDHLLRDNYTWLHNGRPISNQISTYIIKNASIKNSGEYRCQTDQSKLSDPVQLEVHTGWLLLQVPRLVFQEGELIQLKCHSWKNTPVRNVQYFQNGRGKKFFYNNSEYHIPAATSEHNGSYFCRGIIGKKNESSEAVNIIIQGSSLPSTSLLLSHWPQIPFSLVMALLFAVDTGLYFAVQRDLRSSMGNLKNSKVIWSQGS
Protocol: (§1) To test the binding of the anti-CD16 domain, binding was evaluated on canine peripheral blood mononuclear cells (PBMC) that contained canine NK cells, T cells, B cells, and monocytes (Table 2). A single batch of 1615B7H3 TriKE (SEQ ID NO:56) was directly labeled with FITC fluorochrome and tested. The binding of the anti-CD16 fragment alone (anti-CD16-FITC) was tested as a positive control. Binding of an anti-B7H3 fragment alone (antiB7H3-FITC) was tested as a negative control.

[2] = molecular target: T1, canine CD16A on dog peripheral blood …; experiment: flow cytometry, FITC protein at 80 nM, PBMC of dog Maverick
Protocol: as §1

[3] = molecular target: T1, canine CD16A on dog peripheral blood …; experiment: flow cytometry, FITC protein at 2000 nM, PBMC of dog Maverick
Protocol: as §1

[4] = molecular target: T1, canine CD16A on dog peripheral blood …; experiment: flow cytometry, FITC protein at 80 nM, dog PBMC treated with IL-15 for 6 days
Protocol: as §1

[5] = molecular target: T1, canine CD16A on dog peripheral blood …; experiment: flow cytometry, FITC protein at 400 nM, dog PBMC treated with IL-15 for 6 days
Protocol: as §1

[6] = molecular target: T1, canine CD16A on dog peripheral blood …; experiment: flow cytometry, FITC protein at 2000 nM, PBMC of dog Never
Protocol: as §1

[7] = molecular target: T1, canine CD16A on dog peripheral blood …; experiment: flow cytometry, FITC protein at 2000 nM, dog PBMC treated with IL-15 for 6 days
Protocol: as §1

[8] = molecular target: T1, canine CD16A on dog peripheral blood …; experiment: flow cytometry, FITC protein at 400 nM, PBMC of dog Maverick
Protocol: as §1

[9] = molecular target: T1, canine CD16A on dog peripheral blood …; experiment: flow cytometry, FITC protein at 400 nM, PBMC of dog Never
Protocol: as §1

[10] = molecular target: T2, recombinant intact canine CD64 with an N-terminus HA-tag, expressed on NK-92 cells (canine); experiment: flow cytometry on NK-92 cCD16A and NK-92 cCD64 cells (FIG. 3A)
T2 construct: also called NK-92 canine CD64 cells; NK-92 cCD64; not shown: N-terminal HA tag from the pDisplay cassette
T2 chain: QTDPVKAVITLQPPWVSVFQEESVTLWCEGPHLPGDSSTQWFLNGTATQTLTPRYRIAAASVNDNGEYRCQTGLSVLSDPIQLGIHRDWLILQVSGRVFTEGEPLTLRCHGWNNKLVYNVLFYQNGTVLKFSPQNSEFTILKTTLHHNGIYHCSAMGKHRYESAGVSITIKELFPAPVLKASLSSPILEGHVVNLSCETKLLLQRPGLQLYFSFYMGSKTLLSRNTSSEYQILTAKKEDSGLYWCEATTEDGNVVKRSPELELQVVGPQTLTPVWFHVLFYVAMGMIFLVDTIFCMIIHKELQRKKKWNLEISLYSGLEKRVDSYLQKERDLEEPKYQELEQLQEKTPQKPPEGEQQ

[11] = molecular target: T1, canine CD16A on dog peripheral blood …; experiment: flow cytometry on dog peripheral blood leukocytes (FIG. 4A)
Text: Flow cytometry was used to examine the expression patterns of CD16A and CD64 by dog peripheral blood leukocytes. The general leukocyte populations of polymorphonuclear cells (PMNs), monocytes, and lymphocytes were identified based on their characteristic forward and side light-scattering and by their expression of well characterized markers, including CD4 (neutrophils and lymphocyte), CD14 (monocytes), and CD5 (T cells) (FIG. 4A). The anti-canine CD16A clone 4A5 stained a subset of monocytes and lymphocytes, and for some dogs it marginally stained PMNs and/or a small subset of cells in this population (FIG. 4A). This staining pattern was consistent for all the anti-canine CD16 mAbs generated, which had distinct complementarity-determining region nucleotide sequences from 4A5. […]
For cell staining, nonspecific antibody binding sites were blocked for 30 min using 25% canine serum and 25% FBS in PBS buffer (without Ca⁺² and Mg⁺²) (Lonza Group AG, Basel, Switzerland) prior to their staining with antibodies. All cell staining was analyzed on a FACSCelesta instruments (BD Biosciences, Franklin Lakes, N.J.), as previously described (Snyder et al., Vet Immunol Immunopathol 231:110162, 2021). Briefly, for controls, fluorescence minus one was used as well as appropriate isotype-matched antibodies. […]

[12] = molecular target: T3, B7-H3 on canine osteosarcoma OSCA78 cells (canine); experiment: flow cytometry on OSCA78 cells, 80 nM, experiment 2
T3 construct: whole, on cells

[13] = molecular target: T3, B7-H3 on canine osteosarcoma OSCA78 …; experiment: flow cytometry on OSCA78 cells, 16 nM, experiment 2
[14] = molecular target: T3, B7-H3 on canine osteosarcoma OSCA78 …; experiment: flow cytometry on OSCA78 cells, 400 nM, experiment 2
[15] = molecular target: T3, B7-H3 on canine osteosarcoma OSCA78 …; experiment: flow cytometry on OSCA78 cells, 400 nM, experiment 1
[16] = molecular target: T3, B7-H3 on canine osteosarcoma OSCA78 …; experiment: flow cytometry on OSCA78 cells, 2000 nM, experiment 1
[17] = molecular target: T3, B7-H3 on canine osteosarcoma OSCA78 …; experiment: flow cytometry on OSCA78 cells, 80 nM, experiment 1

B1: anti-canine CD16 antibody fragment alone (other)
VL: MEQILLTQSPAIMSASPGEKVTMTCSASSSVGYMHWYQQKPGSSPKPWIYDTSDLASGFPARFSGSRSGTSYSLIISSMEAEDAATYYCHQRSFYPYTFGGGTKLEIK
VH: EVQLQQSGAELVRSGASVKLSCTASGFNIKDYYMHWVKQRPEQGLEWIGWLDPENGDTVYAPKFQGRATMTADTSSNTAYLHLSSLTSEDTAVYYCNALVYSLLGQDYWGQGTTLTVSS
modifications: FITC-labelled in the PBMC assay (sites not given)
notes: also called anti-CD16; anti-CD16-FITC
[1]
  binding (flow cytometry read-out, unit not given): 3.7
[2]
  binding (flow cytometry read-out, unit not given): 10.1
[3]
  binding (flow cytometry read-out, unit not given): 43.6
[4]
  binding (flow cytometry read-out, unit not given): 6.2
[5]
  binding (flow cytometry read-out, unit not given): 15.3
[6]
  binding (flow cytometry read-out, unit not given): 23.8
[7]
  binding (flow cytometry read-out, unit not given): 35.8
[8]
  binding (flow cytometry read-out, unit not given): 26.5
[9]
  binding (flow cytometry read-out, unit not given): 8.8

B2: anti-canine CD16A mAb (clone 4A5) (antibody, IgG1)
VH: EVQLQQSGAELVRSGASVKLSCTASGFNIKDYYMHWVKQRPEQGLEWIGWLDPENGDTVYAPKFQGRATMTADTSSNTAYLHLSSLTSEDTAVYYCNALVYSLLGQDYWGQGTTLTVSSAKTTPPSVYPLAPGSAAQTNSMVTLGCLVKGYFPEPVTVTWNSGSLSSGVHTFPAVLQSDLYTLSSSVTVPSS
VL: QILLTQSPAIMSASPGEKVTMTCSASSSVGYMHWYQQKPGSSPKPWIYDTSDLASGFPARFSGSRSGTSYSLIISSMEAEDAATYYCHQRSFYPYTFGGGTKLEIKRADAAPTVSIFPPSSEQLTSGGASVVCFLNNFYPKDINVKWKIDGSERQNGVLNSWTDQDSKDSTYSMSSTLTLTK
notes: also called anti-CD16A mAb clone 4A5; anti-canine CD16 (clone 4A5)
[10]
  binding result: no binding
[11]
  binding result: binds

B3: anti-B7H3 antibody fragment alone (VHH)
VHH: QVQLVESGGGLVQPGGSLRLSCAASGFTFSSYWMYWVRQTPGKGLEWVSTINRDGSATWYADSVKGRFTISRDNAKNTGYLQMNSLKPDDTAVYYCVSDPDNYSSDEMVPYWGQGTQVTVSS
modifications: FITC-labelled in the PBMC assay (sites not given)
notes: The kind VHH is inferred from the single variable domain and the label 1615CAMB7H3; also called antiB7H3-FITC; anti-B7H3 fragment
[12]
  binding (flow cytometry read-out, unit not given): 42.1
[13]
  binding (flow cytometry read-out, unit not given): 2.8
[14]
  binding (flow cytometry read-out, unit not given): 93.7
[15]
  binding (flow cytometry read-out, unit not given): 98.8
[16]
  binding (flow cytometry read-out, unit not given): 99.8
[17]
  binding (flow cytometry read-out, unit not given): 64
